Assay [1] has as its target bovine FcRn complex (bovine) (UniProt F6R592). The assay is described as follows: SPR (Biacore 8K+), pH 5.9, 25 C; FcRn captured by anti-His, IgG as analyte; 1:1 kinetic model. A general note: Surface plasmon resonance follows binding to a sensor surface in real time, without labels.
In assay [2] the target is ovine FcRn complex (ovine) (UniProt Q6QAT4). The assay is described as follows: SPR (Biacore 8K+), pH 5.9, 25 C; FcRn captured by anti-His, IgG as analyte; steady state affinity.
ovine FcRn complex (ovine), sequence (main, as listed by the source, chain 1 of 2): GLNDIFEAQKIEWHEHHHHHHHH
ovine FcRn complex (ovine), sequence (Q6QAT4 other isoform, or with tags, fused parts or gaps, chain 2 of 2): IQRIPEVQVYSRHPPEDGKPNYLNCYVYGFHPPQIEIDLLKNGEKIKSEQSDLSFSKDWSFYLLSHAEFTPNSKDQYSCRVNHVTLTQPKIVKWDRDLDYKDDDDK
Assay [3] has the same target. Briefly: SPR (Biacore 8K+), pH 5.9, 25 C; FcRn captured by anti-His, IgG as analyte; 1:1 kinetic model.
The target of assay [4] is porcine FcRn complex (porcine) (UniProt Q07717). The assay is described as follows: SPR (Biacore 8K+), pH 5.9, 25 C; FcRn captured by anti-His, IgG as analyte; steady state affinity.
porcine FcRn complex (porcine), sequence (Q07717 other isoform, or with tags, fused parts or gaps, chain 2 of 2): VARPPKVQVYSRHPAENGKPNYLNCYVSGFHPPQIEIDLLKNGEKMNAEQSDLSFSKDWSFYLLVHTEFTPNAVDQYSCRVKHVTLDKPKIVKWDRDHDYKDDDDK

bovine FcRn complex (bovine), sequence (chain, as listed by the source, chain 1 of 2): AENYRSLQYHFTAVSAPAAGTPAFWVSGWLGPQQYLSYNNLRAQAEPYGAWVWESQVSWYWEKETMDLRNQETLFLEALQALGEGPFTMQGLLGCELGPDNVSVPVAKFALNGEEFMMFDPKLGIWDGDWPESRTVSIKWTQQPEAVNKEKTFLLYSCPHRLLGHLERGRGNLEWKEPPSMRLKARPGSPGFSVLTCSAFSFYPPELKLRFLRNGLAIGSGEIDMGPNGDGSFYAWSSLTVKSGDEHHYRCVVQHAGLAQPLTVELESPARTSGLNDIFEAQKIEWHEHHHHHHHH
bovine FcRn complex (bovine), sequence (P01888 other isoform, or with tags, fused parts or gaps, chain 2 of 2): as the sequence (Q6QAT4 other isoform, or with tags, fused parts or gaps, chain 2 of 2) above, with I4P, E6K, V7I, N82K, T87E, K90R counted along it

B1: Bovine Q311V (antibody, part only; not given: variable domains and light chain, IgG1, not shown: another chain or arm of the molecule)
Fc: PPELPGGPSVFIFPPKPKDTLTISGTPEVTCVVVDVGHDDPEVKFSWFVDNVEVNTATTKPREEQFNSTYRVVSALRIQHVDWTGGKEFKCKVHNEGLPAPIVRTISRTKGPAREPQVYVLAPPQEELSKSTVSLTCMVTSFYPDYIAVEWQRNGQPESEDKYGTTPPQLDADSSYFLYSKLRVDRNSWQEGDTYTCVVMHEALHNHYTQKSTSKSA
As for B1, in assay [1], the Fold increase over wild-type KD stood at 2.8 fold.

B2: Bovine N434Y (antibody, part only; not given: variable domains and light chain, IgG1, not shown: another chain or arm of the molecule)
Fc: PPELPGGPSVFIFPPKPKDTLTISGTPEVTCVVVDVGHDDPEVKFSWFVDNVEVNTATTKPREEQFNSTYRVVSALRIQHQDWTGGKEFKCKVHNEGLPAPIVRTISRTKGPAREPQVYVLAPPQEELSKSTVSLTCMVTSFYPDYIAVEWQRNGQPESEDKYGTTPPQLDADSSYFLYSKLRVDRNSWQEGDTYTCVVMHEALHYHYTQKSTSKSA
Usually Kd stands for a measure of binding affinity in units of concentration. The low end stands for a tighter complex, the high end for a looser complex. In assay [1], B2 had a Fold increase over wild-type KD of 42 fold and a Kd of 11.9 nM.

B3: Bovine Y436H (antibody, part only; not given: variable domains and light chain, IgG1, not shown: another chain or arm of the molecule)
Fc: PPELPGGPSVFIFPPKPKDTLTISGTPEVTCVVVDVGHDDPEVKFSWFVDNVEVNTATTKPREEQFNSTYRVVSALRIQHQDWTGGKEFKCKVHNEGLPAPIVRTISRTKGPAREPQVYVLAPPQEELSKSTVSLTCMVTSFYPDYIAVEWQRNGQPESEDKYGTTPPQLDADSSYFLYSKLRVDRNSWQEGDTYTCVVMHEALHNHHTQKSTSKSA
Take B3: in assay [1], the Fold increase over wild-type KD turned out to be 2.3 fold and the Kd was 224 nM.

B4: Ovine wild-type (antibody, part only; not given: variable domains and light chain, IgG1, not shown: another chain or arm of the molecule)
Fc: PELPGGPSVFIFPPKPKDTLTISGTPEVTCVVVDVGQDDPEVQFSWFVDNVEVRTARTKPREEQFNSTFRVVSALPIQHQDWTGGKEFKCKVHNEALPAPIVRTISRTKGQAREPQVYVLAPPQEELSKSTLSVTCLVTGFYPDYIAVEWQKNGQPESEDKYGTTTSQLDADGSYFLYSRLRVDKNSWQEGDTYACVVMHEALHNHYTQKSISKPPGK
In assay [2], B4 displayed a Fold increase over wild-type KD of 1 fold.

B5: Ovine M428Y (antibody, part only; not given: variable domains and light chain, IgG1, not shown: another chain or arm of the molecule)
Fc: PELPGGPSVFIFPPKPKDTLTISGTPEVTCVVVDVGQDDPEVQFSWFVDNVEVRTARTKPREEQFNSTFRVVSALPIQHQDWTGGKEFKCKVHNEALPAPIVRTISRTKGQAREPQVYVLAPPQEELSKSTLSVTCLVTGFYPDYIAVEWQKNGQPESEDKYGTTTSQLDADGSYFLYSRLRVDKNSWQEGDTYACVVYHEALHNHYTQKSISKPPGK
In assay [3], B5 yielded a Fold increase over wild-type KD of 3 fold and a Kd of 166 nM.

B6: Ovine N434Y (antibody, part only; not given: variable domains and light chain, IgG1, not shown: another chain or arm of the molecule)
Fc: PELPGGPSVFIFPPKPKDTLTISGTPEVTCVVVDVGQDDPEVQFSWFVDNVEVRTARTKPREEQFNSTFRVVSALPIQHQDWTGGKEFKCKVHNEALPAPIVRTISRTKGQAREPQVYVLAPPQEELSKSTLSVTCLVTGFYPDYIAVEWQKNGQPESEDKYGTTTSQLDADGSYFLYSRLRVDKNSWQEGDTYACVVMHEALHYHYTQKSISKPPGK
In the case of B6, in assay [3], the Fold increase over wild-type KD turned out to be 81 fold and the Kd was 6.09 nM.

B7: Ovine Q311V (antibody, part only; not given: variable domains and light chain, IgG1, not shown: another chain or arm of the molecule)
Fc: PELPGGPSVFIFPPKPKDTLTISGTPEVTCVVVDVGQDDPEVQFSWFVDNVEVRTARTKPREEQFNSTFRVVSALPIQHVDWTGGKEFKCKVHNEALPAPIVRTISRTKGQAREPQVYVLAPPQEELSKSTLSVTCLVTGFYPDYIAVEWQKNGQPESEDKYGTTTSQLDADGSYFLYSRLRVDKNSWQEGDTYACVVMHEALHNHYTQKSISKPPGK
As for B7, in assay [3], the Fold increase over wild-type KD was found to be 5.4 fold and the Kd is 92.7 nM.

B8: Ovine T252Y (antibody, part only; not given: variable domains and light chain, IgG1, not shown: another chain or arm of the molecule)
Fc: PELPGGPSVFIFPPKPKDTLYISGTPEVTCVVVDVGQDDPEVQFSWFVDNVEVRTARTKPREEQFNSTFRVVSALPIQHQDWTGGKEFKCKVHNEALPAPIVRTISRTKGQAREPQVYVLAPPQEELSKSTLSVTCLVTGFYPDYIAVEWQKNGQPESEDKYGTTTSQLDADGSYFLYSRLRVDKNSWQEGDTYACVVMHEALHNHYTQKSISKPPGK
B8: in assay [3], the Fold increase over wild-type KD stood at 11 fold and the dissociation constant (Kd) was found to be 43.1 nM.

B9: Ovine Q309V (antibody, part only; not given: variable domains and light chain, IgG1, not shown: another chain or arm of the molecule)
Fc: PELPGGPSVFIFPPKPKDTLTISGTPEVTCVVVDVGQDDPEVQFSWFVDNVEVRTARTKPREEQFNSTFRVVSALPIVHQDWTGGKEFKCKVHNEALPAPIVRTISRTKGQAREPQVYVLAPPQEELSKSTLSVTCLVTGFYPDYIAVEWQKNGQPESEDKYGTTTSQLDADGSYFLYSRLRVDKNSWQEGDTYACVVMHEALHNHYTQKSISKPPGK
Regarding B9, in assay [3], the Fold increase over wild-type KD was 6.3 fold and the Kd was found to be 79.3 nM.

B10: Porcine wild-type (antibody, part only; not given: variable domains and light chain, IgG1a, not shown: another chain or arm of the molecule)
Fc: GCEVAGPSVFIFPPKPKDTLMISQTPEVTCVVVDVSKEHAEVQFSWYVDGVEVHTAETRPKEEQFNSTYRVVSVLPIQHQDWLKGKEFKCKVNNVDLPAPITRTISKAIGQSREPQVYTLPPPAEELSRSKVTVTCLVIGFYPPDIHVEWKSNGQPEPEGNYRTTPPQQDVDGTFFLYSKLAVDKARWDHGETFECAVMHEALHNHYTQKSISKTQGK
In turn, B10 yielded a Fold increase over wild-type KD in assay [4] of 1 fold.
